Experimental data as given in US20240400708A1.

Target: feline FcRn complex (FcRn-α subunit and β-microglobulin), biotin labeled (feline)
Experiment: SPR, pH 6

Binder | Kd [nM]
feline IgG1a A431Q (antibody, part only; not given: Variable domains, not shown: another chain or arm of the molecule) constant: ASTTAPSVFPLAPSCGTTSGATVALACLVLGYFPEPVTVSWNSGALTSGVHTFPAVLQASGLYSLSSMVTVPSSRWLSDTFTCNVAHPPSNTKVDKTVRKTDHPPGPKPCDCPKCPPPEMLGGPSIFIFPPKPKDTLSISRTPEVTCLVVDLGPDDSDVQITWFVDNTQVYTAKTSPREEQFNSTYRVVSVLPILHQDWLKGKEFKCKVNSKSLPSPIERTISKAKGQPHEPQVYVLPPAQEELSRNKVSVTCLIKSFHPPDIAVEWEITGQPEPENNYRTTPPQLDSDGTYFVYSKLSVDRSHWQRGNTYTCSVSHEQLHSHHTQKSLTQSPGK | 6.64
feline IgG1a A431R (antibody, part only; not given: Variable domains, not shown: another chain or arm of the molecule) constant: ASTTAPSVFPLAPSCGTTSGATVALACLVLGYFPEPVTVSWNSGALTSGVHTFPAVLQASGLYSLSSMVTVPSSRWLSDTFTCNVAHPPSNTKVDKTVRKTDHPPGPKPCDCPKCPPPEMLGGPSIFIFPPKPKDTLSISRTPEVTCLVVDLGPDDSDVQITWFVDNTQVYTAKTSPREEQFNSTYRVVSVLPILHQDWLKGKEFKCKVNSKSLPSPIERTISKAKGQPHEPQVYVLPPAQEELSRNKVSVTCLIKSFHPPDIAVEWEITGQPEPENNYRTTPPQLDSDGTYFVYSKLSVDRSHWQRGNTYTCSVSHERLHSHHTQKSLTQSPGK | 6.73
feline IgG1a A431V (antibody, part only; not given: Variable domains, not shown: another chain or arm of the molecule) constant: ASTTAPSVFPLAPSCGTTSGATVALACLVLGYFPEPVTVSWNSGALTSGVHTFPAVLQASGLYSLSSMVTVPSSRWLSDTFTCNVAHPPSNTKVDKTVRKTDHPPGPKPCDCPKCPPPEMLGGPSIFIFPPKPKDTLSISRTPEVTCLVVDLGPDDSDVQITWFVDNTQVYTAKTSPREEQFNSTYRVVSVLPILHQDWLKGKEFKCKVNSKSLPSPIERTISKAKGQPHEPQVYVLPPAQEELSRNKVSVTCLIKSFHPPDIAVEWEITGQPEPENNYRTTPPQLDSDGTYFVYSKLSVDRSHWQRGNTYTCSVSHEVLHSHHTQKSLTQSPGK | 7.08
feline IgG1a D249A (antibody, part only; not given: Variable domains, not shown: another chain or arm of the molecule) constant: ASTTAPSVFPLAPSCGTTSGATVALACLVLGYFPEPVTVSWNSGALTSGVHTFPAVLQASGLYSLSSMVTVPSSRWLSDTFTCNVAHPPSNTKVDKTVRKTDHPPGPKPCDCPKCPPPEMLGGPSIFIFPPKPKATLSISRTPEVTCLVVDLGPDDSDVQITWFVDNTQVYTAKTSPREEQFNSTYRVVSVLPILHQDWLKGKEFKCKVNSKSLPSPIERTISKAKGQPHEPQVYVLPPAQEELSRNKVSVTCLIKSFHPPDIAVEWEITGQPEPENNYRTTPPQLDSDGTYFVYSKLSVDRSHWQRGNTYTCSVSHEALHSHHTQKSLTQSPGK | 5.41
feline IgG1a D249E (antibody, part only; not given: Variable domains, not shown: another chain or arm of the molecule) constant: ASTTAPSVFPLAPSCGTTSGATVALACLVLGYFPEPVTVSWNSGALTSGVHTFPAVLQASGLYSLSSMVTVPSSRWLSDTFTCNVAHPPSNTKVDKTVRKTDHPPGPKPCDCPKCPPPEMLGGPSIFIFPPKPKETLSISRTPEVTCLVVDLGPDDSDVQITWFVDNTQVYTAKTSPREEQFNSTYRVVSVLPILHQDWLKGKEFKCKVNSKSLPSPIERTISKAKGQPHEPQVYVLPPAQEELSRNKVSVTCLIKSFHPPDIAVEWEITGQPEPENNYRTTPPQLDSDGTYFVYSKLSVDRSHWQRGNTYTCSVSHEALHSHHTQKSLTQSPGK | 5.84
feline IgG1a D249S (antibody, part only; not given: Variable domains, not shown: another chain or arm of the molecule) constant: ASTTAPSVFPLAPSCGTTSGATVALACLVLGYFPEPVTVSWNSGALTSGVHTFPAVLQASGLYSLSSMVTVPSSRWLSDTFTCNVAHPPSNTKVDKTVRKTDHPPGPKPCDCPKCPPPEMLGGPSIFIFPPKPKSTLSISRTPEVTCLVVDLGPDDSDVQITWFVDNTQVYTAKTSPREEQFNSTYRVVSVLPILHQDWLKGKEFKCKVNSKSLPSPIERTISKAKGQPHEPQVYVLPPAQEELSRNKVSVTCLIKSFHPPDIAVEWEITGQPEPENNYRTTPPQLDSDGTYFVYSKLSVDRSHWQRGNTYTCSVSHEALHSHHTQKSLTQSPGK | 5.24
